Assay results from publication PMC5003418.

Tests used:
[1] = target: HIV-1 integrase K264A/K266A, recombinant, 6xHis-tagged (HIV-1); experiment: SEC
[2] = target: HIV-1 integrase R269A/K273A, recombinant, 6xHis-tagged (HIV-1); experiment: SEC

## HIV-1 integrase K264A/K266A, recombinant, 6xHis-tagged (enzyme)
[1]
  stoichiometry N: 4

## HIV-1 integrase R269A/K273A, recombinant, 6xHis-tagged (enzyme)
[2]
  stoichiometry N: 4
